The record followed here is the RNAGym collection of RNA variant scans (doi:10.7554/elife.80360).

The labels stand for the following.
B1: Hammerhead Ribozyme (parent)
chain: ACCGGAUGUGCUUUCCGGUCUGAUGAGUCCGUGAGGACGAAACAG

Variants of B1 are the subject of this data set. Briefly: self-cleavage, relative activity (ratio to wild type); higher = more cleavage; co-transcriptional.
Take G4C C11U: the self-cleavage was 0.331. To C2G A6U belongs 0.321; to U14C G39U, 0.294; to U14C U19C, 0.398.

As to U14C C15A, the self-cleavage amounted to 0.72. On to A26C C38A, for which the self-cleavage came to 0.657. In the case of U7G G31U, the self-cleavage was determined as 1.18. U7G G31A: the self-cleavage worked out at 1.25. A1U A40G: the self-cleavage was determined as 0.383.

Regarding G36U A37U, the self-cleavage stood at 0.724. For U14C, the self-cleavage came out at 0.932. Consider U9C U13C, for which the self-cleavage came out at 0.843. For C29U G39C, the self-cleavage was found to be 0.326. Consider G5A G33U, for which the self-cleavage came out at 1.44. Turning to G4A U32A, the self-cleavage was determined as 0.579. Take G5C U19A: the self-cleavage worked out at 0.344. For the variant A26G G39A, the self-cleavage was determined as 0.368. Turning to A1U U24A, the self-cleavage was 1.04. U13C C38U: the self-cleavage stood at 1.11. With U24C A42C the figure was 0.316. On to A1C U19A, for which the self-cleavage was 0.344. In the case of C20A A40U, the self-cleavage was 0.382.

With G8C U32A, the self-cleavage worked out at 1.28. With C2G C16G the figure was 0.294. With U14G G33U the figure was 0.678. With C2A C16U the figure was 0.554; with G18A G35U, 0.594.

Consider G27C A44U, for which the self-cleavage worked out at 0.445. With C11G A34G the figure was 1.06.

G17U A41G: the self-cleavage stood at 0.375.

Turning to G8U A37C, the self-cleavage is 1.09. As to U21C C38A, the self-cleavage is 0.711. As for U13C C15A, the self-cleavage came out at 0.834. Consider G17A G25A, for which the self-cleavage came to 0.353. For the variant G5U A44C, the self-cleavage came to 0.515. As for G18A C38A, the self-cleavage was found to be 0.596. For U7G U9A, the self-cleavage is 1.19.

Consider U21G C30A, for which the self-cleavage is 0.419. On to G10A A40U, for which the self-cleavage is 0.298. On to G22A C38G, for which the self-cleavage came to 0.329. As to G5C A34U, the self-cleavage stood at 0.477. With A6U U32C the figure was 0.988; with G8C U12C, 1.11. Consider A1C A40C, for which the self-cleavage worked out at 0.446. A6G C38A: the self-cleavage stood at 0.454. Turning to G4C G35U, the self-cleavage was 0.426.

Consider C20U A34U, for which the self-cleavage was determined as 0.356. For the variant U24G A41G, the self-cleavage was found to be 0.308.

As to C29A G39A, the self-cleavage came to 0.356. As for G18U A23G, the self-cleavage was 0.288.

Regarding U24G C38U, the self-cleavage was found to be 0.656. Regarding C2G U7A, the self-cleavage came out at 0.364.

Take G10A U21G: the self-cleavage came out at 0.462. With G4C U12C the figure was 0.513. With U13G C43A the figure was 0.369; with U13G C43G, 0.335; with G17A A40U, 0.354. In the case of C30U A41U, the self-cleavage worked out at 0.419. As to G36C C43U, the self-cleavage is 0.308. With G17U G36A the figure was 0.621; with C2U U19C, 0.531; with C2U U19A, 0.365. Regarding G10U U12G, the self-cleavage was found to be 0.773. Regarding G27C G35C, the self-cleavage worked out at 0.394.

Turning to U19A C43A, the self-cleavage worked out at 0.279. On to U19A C43G, for which the self-cleavage turned out to be 0.346. Turning to A1U U13G, the self-cleavage was 0.812.

In the case of U14G G25C, the self-cleavage was 0.315. On to C16U C30U, for which the self-cleavage amounted to 1.02. As to U13C U24A, the self-cleavage came out at 1.64. As for U24C G31A, the self-cleavage came to 0.924.

In the case of G4U C30A, the self-cleavage was found to be 0.4. To U12G U14C belongs 0.677; to G18C C30U, 0.606; to U21A C43A, 0.349.

Turning to C3G G45U, the self-cleavage was determined as 0.374.

Regarding C3U U21G, the self-cleavage turned out to be 0.558.

Consider A23C G35C, for which the self-cleavage was 0.408. To C30U A44G belongs 1.36; to C3G C38U, 0.37. To U32G A37C belongs 0.431; to C16G A34G, 0.655. With U9A U28A the figure was 0.803; with G17A A37C, 0.642; with C20G G22C, 0.43. On to G10C G22A, for which the self-cleavage was 0.338. Regarding G17U C20G, the self-cleavage stood at 0.359. In the case of C2U G4C, the self-cleavage was 0.397. A1U A34G: the self-cleavage came out at 0.596. In the case of A1G G4C, the self-cleavage amounted to 0.32.

In the case of A42G G45U, the self-cleavage was determined as 0.354.

C11A G35C: the self-cleavage was 0.887. On to G5U C20G, for which the self-cleavage was 0.333. As for G5A A23C, the self-cleavage is 0.315. For A6U G17A, the self-cleavage amounted to 0.401. As to G18A C43A, the self-cleavage turned out to be 0.299.

As for G5A C30U, the self-cleavage is 1.43. As to A1U A41U, the self-cleavage came to 0.377. Regarding G8A U24A, the self-cleavage was determined as 1.11. On to U19C U32G, for which the self-cleavage was 0.642.

Consider G10U A44U, for which the self-cleavage was found to be 0.686. To C16G U21A belongs 0.349; to G25U G39U, 0.295; to C20A A34U, 0.413. For U14A G31C, the self-cleavage was 1.01. As to C30A A34C, the self-cleavage came to 0.798. Turning to G25C G45U, the self-cleavage came out at 0.279. To G25C G45A belongs 0.302; to C38G G39U, 0.402.

In the case of U24G C43U, the self-cleavage was determined as 0.463.

C11A C43A: the self-cleavage worked out at 0.357. C3A A37C: the self-cleavage came to 0.354. As to A26G U32A, the self-cleavage worked out at 0.373. With A26G U32G the figure was 0.412; with U9A G33C, 0.808; with G17A A42U, 0.396. With G17A U19C the figure was 0.23; with U12A C43A, 0.33; with G18U U32G, 0.802. For G5A C20G, the self-cleavage came out at 0.286. Turning to U19C G35A, the self-cleavage was 0.64.

With U13C A44G, the self-cleavage was determined as 1.49.

Take G17A C30G: the self-cleavage amounted to 0.476.

As to G17U G27A, the self-cleavage is 0.643. On to U32A C38A, for which the self-cleavage is 0.681. For the variant U21G A37C, the self-cleavage amounted to 0.427. Turning to U19C A40U, the self-cleavage worked out at 0.272. As to G10A C16G, the self-cleavage stood at 0.812. As to C20A G22C, the self-cleavage was found to be 0.349. With A23C G36C, the self-cleavage is 0.351. Turning to U12A G36U, the self-cleavage was 0.596. Turning to G25A A40C, the self-cleavage was determined as 0.368. A23U A44G: the self-cleavage was determined as 0.706. As for C3A C30A, the self-cleavage is 0.557. On to U7C U21G, for which the self-cleavage is 0.449.

For U9G G33U, the self-cleavage amounted to 0.788. On to A23U U24A, for which the self-cleavage is 0.58. On to U21A G39C, for which the self-cleavage came out at 0.32.

Regarding C30U, the self-cleavage came out at 1.02. A26G C43G: the self-cleavage came out at 0.31. For G8U G36U, the self-cleavage amounted to 0.495. Take G22A A26C: the self-cleavage turned out to be 0.316. With G17A U32C the figure was 0.812. On to G25A U28A, for which the self-cleavage came to 0.342.

As to C2A U9C, the self-cleavage turned out to be 0.695. For the variant A6G C20G, the self-cleavage came out at 0.236. For U24C A41U, the self-cleavage was 0.408. With U7C C30A the figure was 0.736; with A1U C30U, 0.897.

On to G4U C43G, for which the self-cleavage turned out to be 0.295. With C29G G36U the figure was 1.01; with G17A U24G, 0.592.

In the case of G10U C15A, the self-cleavage was 0.817.

In the case of G8C A40C, the self-cleavage worked out at 0.428.

Take U21A G45C: the self-cleavage amounted to 0.335.

Consider C20G A42C, for which the self-cleavage amounted to 0.307.

In the case of A1U G36A, the self-cleavage was found to be 0.537. Consider G31A A44C, for which the self-cleavage came out at 0.685.

Take G31A A44U: the self-cleavage came to 0.861. Turning to U7C C16G, the self-cleavage turned out to be 0.487. Regarding G18U C38U, the self-cleavage came out at 0.661.

A6C C20U: the self-cleavage was found to be 0.371. In the case of U14G A40C, the self-cleavage worked out at 0.52.

As to C2A A23G, the self-cleavage was found to be 0.334. With C15A C16A, the self-cleavage is 0.869. For the variant U7G A34C, the self-cleavage was found to be 1.44. With C16G A23U the figure was 0.295.
